Data set [1] can be described thus: beta-glycosidase activity in tobacco leaf extract (beta-PNPG hydrolysis). It counts as biochemical. Here is the method:
To obtain tobacco leaf extract for assays, approximately […] of tobacco (five 1.1 cm diameter disk punches) leaves were harvested, rinsed with distilled water, midribs removed and weighed. Leaves were then ground to a powder in liquid nitrogen and ground again with a sterilized pestle. The extracts were then clarified by centrifugation at 14,000 rpm for 10 minutes at room temperature. The resulting supernatant was heat treated for 1 hour at 85° C. and clarified by spinning at 14,000 rpm for 10 minutes at room temperature. The supernatant was collected and assayed for alpha-glucosidase or beta-glycosidase enzyme activity by measuring the hydrolysis of p-nitrophenyl-alpha-glucopyranoside (alpha-PNPG) and p-nitrophenyl-beta-D-glucopyranoside (beta-PNPG), respectively, as previously described (Rolfsmeier, et al., 1998; Haseltine, et al., 1999(a)). Plant tissue extracts for studies on hydrolysis of added defined substrates were prepared using 100 g of tobacco leaves were harvested and grinded to a fine powder in liquid nitrogen. The leaf powder was resuspended in 500 ml of 10 mM tris-Cl pH7.0 to which 10 mM beta-mercaptoethanol has been added. The suspension was then homogenized in a Waring blender. The resulting extract was centrifuged at 5,000 rpm for 30 minutes at 4° C. and the supernatant was further clarified by filtering through three layers of cheesecloth. […] Glucose released by glycosyl hydrolase action on endogenous plant carbohydrates was measured using the Glucose Oxidase Assay (Sigma).
Glucosyl hydrolase levels were determined in primary plant transformants using clarified leaf extracts incubated at 80° C. […] Activity was measured on fully expanded leaves of plants that had grown in soil for 76 to 164 days. Levels of the beta-glycosidase in young primary transformants was determined in twenty-three independent events. […]
It has been determined that glycosyl hydrolases retain significant activity in fully mature and preserved leaf tissue. […]

A short description of data set [2]: glucose release from endogenous polysaccharide-enriched tobacco extract at 80° C. In kind it is biochemical, Nicotiana tabacum. As to conditions: transgenic protein extract plus polysaccharide-enriched tobacco extract, terminated after 160 hr. Here is the method: (§1) FIGS. 7A and B show the release of glucose by transgenic glycosyl hydrolases from exogenous and endogenous plant carbohydrates. FIG. 7A. Glucose released by the alpha-glucosidase using an exogenous soluble starch as substrate. A 5% (w/v) solution of soluble starch was incubated at 80° C. with no additions (closed circles), with a protein extract from a plant transformed with an empty vector (open circles) and with a protein extract from transformant MI52E containing the alpha-glucosidase (closed squares). FIG. 7B. Glucose released by glycosyl hydrolases using an endogenous polysaccharide-enriched plant extract as substrate. Protein extracts were: beta-glycosidase (closed squares), alpha-glucosidase (closed circles), and empty vector transformed plant (labeled). Glucose levels were determined using the glucose oxidase assay.
To obtain tobacco leaf extract for assays, approximately […] of tobacco (five 1.1 cm diameter disk punches) leaves were harvested, rinsed with distilled water, midribs removed and weighed. Leaves were then ground to a powder in liquid nitrogen and ground again with a sterilized pestle. […] Glucose released by glycosyl hydrolase action on endogenous plant carbohydrates was measured using the Glucose Oxidase Assay (Sigma).
Levels of liberated glucose were determined as a function of incubation time at 80° C. […]

A short description of data set [3]: glucose release by transgenic plant protein extracts at 80° C. In kind it is biochemical. As to conditions: transgenic plant protein extract, incubation at 80° C. Here is the method: as §1
Conversion of plant polysaccharide into free sugar is conventionally done by addition of purified or semipurified hydrolytic enzymes. […] Protein extracts of the alpha-glucosidase transgenic plant MI52E, were prepared and combined with soluble starch. Plant leaves were harvested in the late afternoon, ground in liquid nitrogen with a mortar and pestle in 100 mM phosphate buffer at pH 7.0. […] No significant glucose was detected in reactions containing protein extracts from plants transformed with empty vector and added starch or in reactions containing starch alone. […]

Data set [4] is described as follows: conversion of added starch to glucose by concentrated malA tobacco extract at 85° C. In kind it is biochemical. As to conditions: 5% starch, extract pre-treated one hour at 85° C., 16 hours. As for the experimental part:
Precipitation of tobacco leaf proteins with (NH4)2 SO4 achieved a 3-fold concentration of the recombinant alpha-glucosidase with a recovery of 100%. Endogenous plant glycolytic activities were eliminated prior to malA assays by heat inactivation (1 hr, […]). Background due to endogenous glucose was removed by dialysis. […] In an attempt to remove this background, concentrated empty vector control extract was pre-incubated for one hour at 85° C., clarified by microcentrifugation and then incubated for 0 or 14 hour at 85° C. in the presence or absence of 5% starch. Without preincubation, background in the presence of starch was very high, at both 0 and at 14 hours, corresponding to 17.8 to 19.2 micrograms of glucose per 100 microliters of assay. Background in the absence of starch was much lower, but apparently more time-dependent, rising from 0.9 to 1.6 micrograms of glucose per 100 microliters in 14 hours (FIG. 7). When the extract was pre-heated before assay, the background in the absence of starch was unchanged, but the background in the presence of starch was then at the same level as the background in the absence of starch without pre-heating (FIG. 7). […]
For measurements of glycosyl hydrolase activities on glucose polymers. […] Aliquots of 100 ul were removed at four hour intervals and glucose was detected with a glucose oxidase glucose detection kit from Sigma.

Data set [5] can be described thus: maltose hydrolysis, glucose oxidase assay. In kind it is biochemical. The conditions noted are these: FIG. 4A. An excerpt: (§2) Purification of the recombinant enzyme to apparent homogeneity employed heat fractionation of clarified cell sonicates followed by anion-exchange fast protein liquid chromatography and gel filtration fast protein liquid chromatography as described by Rolfsmeier, et al., 1995. […] Complete denaturation of the recombinant alpha-glucosidase required additional treatment with 6 M guanidine hydrochloride, resulting in exclusive formation of the 80-kDa monomer. Assays for alpha-glucosidase activity with p-nitrophenyl-α-D-glucopyranoside were performed as described by Rolfsmeier, et al., 1995. In enzymatic assays for hydrolysis of maltose and glycogen, release of glucose was monitored with a glucose oxidase assay kit (Sigma) as described by Rolfsmeier, et al., 1995.
(Rolfsmeier et al., 1995).

Data set [6] can be described thus: hydrolysis of p-nitrophenyl-α-D-glucopyranoside by purified recombinant enzyme. It counts as biochemical. As to conditions: 85° C., purified recombinant enzyme from E. coli. As for the experimental part:
The production of the recombinant enzymes of this invention were conducted by over expression in E. coli. Assays for alpha-glucosidase activity were performed with para-nitrophenyl-alpha-D-glucopyranoside or methylumbelliferyl-alpha-D-glucoside. Assays for hydrolysis of substrate and detection of glucose were monitored by means known in the art. Purification of the recombinant enzyme to apparent homogeneity employed heat fractionation of clarified cell sonicates followed by anion-exchange fast protein liquid chromatography and gel filtration fast protein liquid chromatography as described in Rolfsmeier, et al.,1995.
Purification of the recombinant enzyme to apparent homogeneity employed heat fractionation of clarified cell sonicates followed by anion-exchange fast protein liquid chromatography and gel filtration fast protein liquid chromatography as described by Rolfsmeier, et al., 1995. […] Complete denaturation of the recombinant alpha-glucosidase required additional treatment with 6 M guanidine hydrochloride, resulting in exclusive formation of the 80-kDa monomer. Assays for alpha-glucosidase activity with p-nitrophenyl-α-D-glucopyranoside were performed as described by Rolfsmeier, et al., 1995. In enzymatic assays for hydrolysis of maltose and glycogen, release of glucose was monitored with a glucose oxidase assay kit (Sigma) as described by Rolfsmeier, et al., 1995. […]

Data set [7] can be described thus: recalcitrance to denaturation in denaturing SDS-PAGE. In kind it is physicochemical. The conditions noted are these: boiling in 2% (wt/vol) SDS for 10 minutes.
Text: as §2

A short description of data set [8]: glycogen hydrolysis, glucose oxidase assay. It counts as biochemical.
Text: as §2
Alpha-glucosidases of mammalian origin are generally distinguished from those of higher plants and eubacteria by their affinities for glycogen as a substrate.

Data set [9] can be described thus: alpha-glucosidase activity in tobacco leaf extract (alpha-PNPG hydrolysis). It counts as biochemical. Here is the method:
To obtain tobacco leaf extract for assays, approximately […] of tobacco (five 1.1 cm diameter disk punches) leaves were harvested, rinsed with distilled water, midribs removed and weighed. Leaves were then ground to a powder in liquid nitrogen and ground again with a sterilized pestle. The extracts were then clarified by centrifugation at 14,000 rpm for 10 minutes at room temperature. The resulting supernatant was heat treated for 1 hour at 85° C. and clarified by spinning at 14,000 rpm for 10 minutes at room temperature. The supernatant was collected and assayed for alpha-glucosidase or beta-glycosidase enzyme activity by measuring the hydrolysis of p-nitrophenyl-alpha-glucopyranoside (alpha-PNPG) and p-nitrophenyl-beta-D-glucopyranoside (beta-PNPG), respectively, as previously described (Rolfsmeier, et al., 1998; Haseltine, et al., 1999(a)). Plant tissue extracts for studies on hydrolysis of added defined substrates were prepared using 100 g of tobacco leaves were harvested and grinded to a fine powder in liquid nitrogen. The leaf powder was resuspended in 500 ml of 10 mM tris-Cl pH7.0 to which 10 mM beta-mercaptoethanol has been added. The suspension was then homogenized in a Waring blender. The resulting extract was centrifuged at 5,000 rpm for 30 minutes at 4° C. and the supernatant was further clarified by filtering through three layers of cheesecloth. Plant extracts used for studies on hydrolysis of endogenous polysaccharides as sources of transgenic proteins were prepared using one leaf (medium to large) for each plant which was harvested and ground to a fine powder in liquid nitrogen. The ground leaves were resuspended in 2 volumes of 100 mM sodium phosphate pH 7.0 with 10 mM beta-mercaptoethanol and the tissue was further homogenized in a Waring blender. The resulting extracts were then incubated at 80° C. to activate the recombinant alpha-glucosidase and beta-glycosidase for 48 hours. After incubation, the extracts were clarified by centrifugation by 12,500 rpm for 10 minutes 4° C. Glucose released by glycosyl hydrolase action on endogenous plant carbohydrates was measured using the Glucose Oxidase Assay (Sigma).
Glucosyl hydrolase levels were determined in primary plant transformants using clarified leaf extracts incubated at 80° C. Plants transformed with empty vector lacked detectable thermostable glycosyl hydrolase activity. Activity was measured on fully expanded leaves of plants that had grown in soil for 76 to 164 days. Levels of the beta-glycosidase in young primary transformants was determined in twenty-three independent events. Enzyme levels in ten representative isolates ranged over 12-fold with maximum values of 29 μmoles PNP/min/mg of protein (FIG. 5B).
It has been determined that glycosyl hydrolases retain significant activity in fully mature and preserved leaf tissue. Glycosyl hydrolase specific activities in plant tissues were compared, after freezing or drying, to levels in fresh tissue samples (Table 2). Significant beta-glycosidase activity was retained in leaves harvested and held at −80° C. for 5 days.

Where [10] appears, read: Dried transgenic tobacco leaf tissue.
[11] abbreviates: Fresh transgenic tobacco leaf tissue.

B1: Beta-glycosidase: S. solfataricus beta-glycosidase (lacS) converting beta-linked disaccharides into glucose, expressed in transgenic tobacco (protein)
chain: MYSFPNSFRFGWSQAGFQSEMGTPGSEDPNTDWYKWVHDPENMAAGLVSGDLPENGPGYWGNYKTFHDNAQKMGLKIARLNVEWSRIFPNPLPRPQNFDESKQDVTEVEINENELKRLDEYANKDALNHYREIFKDLKSRGLYFILNMYHWPLPLWLHDPIRVRRGDFTGPSGWLSTRTVYEFARFSAYIAWKFDDLVDEYSTMNEPNVVGGLGYVGVKSGFPPGYLSFELSRRAMYNIIQAHARAYDGIKSVSKKPVGIIYANSSFQPLTDKDMEAVEMAENDNRWWFFDAIIRGEITRGNEKIVRDDLKGRLDWIGVNYYTRTVVKRTEKGYVSLGGYGHGCERNSVSLAGLPTSDFGWEFFPEGLYDVLTKYWNRYHLYMYVTENGIADDADYQRPYYLVSHVYQVHRAINSGADVRGYLHWSLADNYEWASGFSMRFGLLKVDYNTKRLYWRPSALVYREIATNGAITDEIEHLNSVPPVKPLRH
As for B1, the figures for the “Beta-glycosidase specific activity in plant tissue” value in data set [1] (setting [10]), in data set [1] (setting [11]) and in [1] (Frozen transgenic tobacco leaf tissue (−80° C. for 5 days)) were 31 μmoles PNP/min/mg, 62 μmoles PNP/min/mg and 67 μmoles PNP/min/mg, respectively. Moreover, the “initial lag before levels of glucose began to increase” value in data set [2] was found to be 28 h. For the same molecule, the “rate of appearance of glucose” value in [3] is 0.15 µg/h.

B2: recombinant alpha-glucosidase: thermostable alpha-glucosidase of Sulfolobus solfataricus encoded by malA (SEQ ID NO:2), expressed recombinantly in E. coli or transgenic tobacco (protein, listed as Sulfolobus solfataricus)
chain: MQTIKIYENKGVYKVVIGEPFPPIEFPLEQKISSNKSLSELGLTIVQQGNKVIVEKSLDLKEHIIGLGEKAFELDRKRKRYVMYNVDAGAYKKYQDPLYVSIPLFISVKDGVATGYFFNSASKVIFDVGLEEYDKVIVTIPEDSVEFYVIEGPRIEDVLEKYTELTGKPFLPPMWAFGYMISRYSYYPQDKVVELVDIMQKEGFRVAGVFLDIHYMDSYKLFTWHPYRFPEPKKLIDELHKRNVKLITIVDHGIRVDQNYSPFLSGMGKFCEIESGELFVGKMWPGTTVYPDFFREDTREWWAGLISEWLSQGVDGIWLDMNEPTDFSRAIEIRDVLSSLPVQFRDDRLVTTFPDNVVHYLRGKRVKHEKVRNAYPLYEAMATFKGFRTSHRNEIFILSRAGYAGIQRYAFIWTGDNTPSWDDLKLQLQLVLGLSISGVPFVGCDIGGFQGRNFAEIDNSMDLLVKYYALALFFPFYRSHKATDGIDTEPVFLPDYYKEKVKEIVELRYKFLPYIYSLALEASEKGHPVIRPLFYEFQDDDDMYRIEDEYMVGKYLLYAPIVSKEESRLVTLPRGKWYNYWNGEIINGKSVVKSTHELPIYLREGSIIPLEGDELIVYGETSFKRYDNAEITSSSNEIKFSREIYVSKLTITSEKPVSKIIVDDSKEIQVEKTMQNTYVAKINQKIRGKINLE
For the molecule B2, in [4], the “net rate of glucose formation (conversion of added starch to glucose)” value amounted to 0.42 micrograms per hour. The “pH optimum for maltose hydrolysis” value in data set [5] worked out at 4.5. Further, the “Vmax for p-nitro-phenyl-α-D-glucopyranoside” value in data set [6] is recorded as 3.08 μmol of p-nitrophenol/min. In addition, the Km in [6] (read-out: Km for p-nitro-phenyl-α-D-glucopyranoside) amounted to 2160 µM. Besides, the “enzyme that failed to enter the separating gel, migrating in the stacking gel” value in data set [7] is reported as 45 % of the total observed protein. The “initial lag before levels of glucose began to increase” value in [2] was found to be 28 h. Moreover, the Km for glycogen in [8] (85° C.) is 64.9 mg/mL. For the same molecule, the Vmax for glycogen in data set [8] (85° C.) is 1.0 μmol of glucose/min. For the same molecule, the “pH optimum for glycogen hydrolysis” value in data set [8] (FIG. 4B) turned out to be 5.5. Moreover, the entries for the “Alpha-glucosidase specific activity in plant tissue” value in data set [9] (setting [10]), in data set [9] (setting [11]) and in data set [9] (Frozen transgenic tobacco leaf tissue) were 27 μmoles PNP/hr/mg, 1.6 μmoles PNP/hr/mg and 3.6 μmoles PNP/hr/mg, respectively. Besides, the “activity more stable when dried, as compared to fresh tissues” value in data set [9] (dried vs fresh tobacco tissue) worked out at 17 times. The “activity more stable when frozen, as compared to fresh tissues” value in [9] (frozen vs fresh tobacco tissue) is listed as “over two”. In addition, the “rate of appearance of glucose” value in data set [3] was found to be 0.11 µg/h.

The Km is the substrate concentration at which the rate is half of its maximum.

(Values after US6506592B1, “Hyperthermophilic alpha-glucosidase gene and its use” (Board of Regents of the University of Nebraska, priority 1998, dated 2003).)
